Experimental data reported in article PMC7041945, “Misfolded proteins bind and activate death receptor 5 to trigger apoptosis during unresolved endoplasmic reticulum stress” (eLife, 2020).

What was measured:
HCT116 cells [1] = assay: Trypan blue staining, automated cell counting; type: cell-based, Homo sapiens; design: key to Trypan blue- / Trypan blue+ / avg Trypan blue- / avg Trypan blue+: % of cells (Trypan blue positive or negative); conditions: for avg Trypan blue+ / avg Trypan blue-: avg of Rep 1-3; for Dead concentration / Live concentration / Total Concentration / Viability (%): BF
Protocol: Cells seeded in a 6-well plate were transfected with the specified plasmid for 24 hr and harvested via trypsinization in complete media and ultimately resuspended in 400 μl of media to obtain a concentration of 1.0–3.0 × 10^6 cells/ml. The cell suspension was then mixed 1:1 with 0.4% Trypan blue (Sigma-Aldrich) and incubated at 37°C for 30 min. The percentage of cells staining positive for was then quantified using the Countess II FL Automated Cell Counter (ThermoFisher, catalog # AMQAF1000) default brightfield settings with disposable slides.

HCT116 cells [2] = assay: Annexin V (and SytoxBlue) flow cytometry for apoptosis; type: cell-based, Homo sapiens; conditions: for Mean ± SEM (Fig 1S2D): n=3
Protocol: Cells seeded in a 6-well plate were transfected with the specified plasmid for 24 hr and harvested via trypsinization in complete media to allow a 30 min recovery at 37°C. The samples were then centrifuged at 500xg for 5 min and resuspended In 150 μl of a 1:20 dilution of Annexin V-AlexaFluor 647 conjugate (Thermo Scientific #A23204). Samples were transferred to a 96-well U-bottom plate and incubated in the dark for 15 min at RT. The distribution of apoptotic cells was determined by flow cytometry on a BD LSR II.

[3] = hct chop 62, biological replicate 1 (05.22.2019)
[4] = hct chop 125 (ng), biological replicate 1 (05.22.2019)
[5] = hct chop 125 (ng), biological replicate 2 (05.24.2019)
[6] = hct chop 125 (ng), biological replicate 3 (05.24.2019)
[7] = hct chop 250 (ng), biological replicate 1 (05.22.2019)
[8] = hct chop 250 (ng), biological replicate 2 (05.24.2019)
[9] = hct chop 250 (ng), biological replicate 3 (05.24.2019)
[10] = hct chop 500 (ng), biological replicate 1 (05.22.2019)
[11] = hct chop 500 (ng), biological replicate 2 (05.24.2019)
[12] = hct chop 500 (ng), biological replicate 3 (05.24.2019)
[13] = hct chop 1000 (ng), biological replicate 1 (05.24.2019)
[14] = hct chop 1000 (ng), biological replicate 2 (05.24.2019)
[15] = hct chop 1000 (ng), biological replicate 3 (05.24.2019)

B1: CHOP: CHOP (canonical isoform) expression vector, expression of CHOP in absence of ER stress (protein, UniProt P35638 1-169, looked up)
DNA damage-inducible …: MAAESLPFSFGTLSSWELEAWYEDLQEVLSSDENGGTYVSPPGNEEEESKIFTTLDPASLAWLTEEEPEPAEVTSTSQSPHSPDSSQSSLAQEEEEEDQGRTRKRKQSGHSPARAGKQRMKEKEQENERKVAQLAEENERLKQEIERLTREVEATRRALIDRMVNLHQA
modifications: expression vector
notes: CHOP (canonical isoform) expression vector, expression of CHOP in absence of ER stress
HCT116 cells [1]; CHOP - 125 ng, Rep 1
  Trypan blue+: 4.216
  Trypan blue-: 95.7841
HCT116 cells [1]; CHOP - 125 ng, Rep 2
  Trypan blue+: 3.766
  Trypan blue-: 96.2338
HCT116 cells [1]; CHOP - 125 ng, Rep 3
  Trypan blue+: 4.155
  Trypan blue-: 95.8447
HCT116 cells [1]; CHOP - 125 ng
  avg Trypan blue+: 4.046
  avg Trypan blue-: 95.9542
HCT116 cells [1]; CHOP - 250 ng, Rep 1
  Trypan blue+: 6.303
  Trypan blue-: 93.6968
HCT116 cells [1]; CHOP - 250 ng, Rep 2
  Trypan blue+: 12.2829
  Trypan blue-: 87.7171
HCT116 cells [1]; CHOP - 250 ng, Rep 3
  Trypan blue+: 5.723
  Trypan blue-: 94.2771
HCT116 cells [1]; CHOP - 250 ng
  avg Trypan blue+: 8.103
  avg Trypan blue-: 91.897
HCT116 cells [1]; CHOP - 500 ng, Rep 1
  Trypan blue+: 14.1844
  Trypan blue-: 85.8156
HCT116 cells [1]; CHOP - 500 ng, Rep 2
  Trypan blue+: 6.367
  Trypan blue-: 93.633
HCT116 cells [1]; CHOP - 500 ng, Rep 3
  Trypan blue+: 6.466
  Trypan blue-: 93.534
HCT116 cells [1]; CHOP - 500 ng
  avg Trypan blue+: 9.006
  avg Trypan blue-: 90.9942
HCT116 cells [1]; CHOP - 1000 ng, Rep 1
  Trypan blue+: 8.481
  Trypan blue-: 91.5194
HCT116 cells [1]; CHOP - 1000 ng, Rep 2
  Trypan blue+: 6.72
  Trypan blue-: 93.2796
HCT116 cells [1]; CHOP - 1000 ng, Rep 3
  Trypan blue+: 4.533
  Trypan blue-: 95.4674
HCT116 cells [1]; CHOP - 1000 ng
  avg Trypan blue+: 6.578
  avg Trypan blue-: 93.4221
HCT116 cells [1]; comparable CHOP-induced DR5 protein, no ER stress
  PARP cleavage and trypan blue staining vs misfolded-protein stress: drastically lower levels of PARP cleavage and trypan blue staining
HCT116 cells [1]; [3]
  Dead concentration: 1.35E+05
  Live concentration: 2.23E+06
  Total Concentration: 2.36E+06
  Viability (%): 94.2928%
HCT116 cells [1]; [4]
  Dead concentration: 1.47E+05
  Live concentration: 3.33E+06
  Total Concentration: 3.48E+06
  Viability (%): 95.7841%
HCT116 cells [1]; [5]
  Dead concentration: 3.40E+05
  Live concentration: 8.69E+06
  Total Concentration: 9.03E+06
  Viability (%): 96.2338%
HCT116 cells [1]; [6]
  Dead concentration: 8.03E+05
  Live concentration: 1.85E+07
  Total Concentration: 1.93E+07
  Viability (%): 95.8447%
HCT116 cells [1]; [7]
  Dead concentration: 2.17E+05
  Live concentration: 3.23E+06
  Total Concentration: 3.44E+06
  Viability (%): 93.6968%
HCT116 cells [1]; [8]
  Dead concentration: 5.81E+05
  Live concentration: 4.15E+06
  Total Concentration: 4.73E+06
  Viability (%): 87.7171%
HCT116 cells [1]; [9]
  Dead concentration: 6.69E+05
  Live concentration: 1.10E+07
  Total Concentration: 1.17E+07
  Viability (%): 94.2771%
HCT116 cells [1]; [10]
  Dead concentration: 3.52E+05
  Live concentration: 2.13E+06
  Total Concentration: 2.48E+06
  Viability (%): 85.8156%
HCT116 cells [1]; [11]
  Dead concentration: 2.99E+05
  Live concentration: 4.40E+06
  Total Concentration: 4.70E+06
  Viability (%): 93.633%
HCT116 cells [1]; [12]
  Dead concentration: 3.40E+05
  Live concentration: 4.92E+06
  Total Concentration: 5.26E+06
  Viability (%): 93.534%
HCT116 cells [1]; [13]
  Dead concentration: 2.82E+05
  Live concentration: 3.04E+06
  Total Concentration: 3.32E+06
  Viability (%): 91.5194%
HCT116 cells [1]; [14]
  Dead concentration: 2.93E+05
  Live concentration: 4.07E+06
  Total Concentration: 4.36E+06
  Viability (%): 93.2796%
HCT116 cells [1]; [15]
  Dead concentration: 1.88E+05
  Live concentration: 3.95E+06
  Total Concentration: 4.14E+06
  Viability (%): 95.4674%
HCT116 cells [2]; CHOP - 125 ng vs. empty, Welch's correction
  Difference between means: 0.4983 ± 1.264
HCT116 cells [2]; CHOP - 125 ng
  Mean ± SEM (Fig 1S2D): 4.046 ± 0.1409, n=3
HCT116 cells [2]; CHOP - 250 ng vs. CHOP - 125 ng, Welch's correction
  Difference between means: 4.057 ± 2.101
HCT116 cells [2]; CHOP - 250 ng
  Mean ± SEM (Fig 1S2D): 8.103 ± 2.097, n=3
HCT116 cells [2]; CHOP - 500 ng vs. CHOP - 125 ng, Welch's correction
  Difference between means: 4.960 ± 2.593
HCT116 cells [2]; CHOP - 500 ng vs. CHOP - 250 ng, unpaired t test
  Difference between means: 0.9028 ± 3.332
HCT116 cells [2]; CHOP - 500 ng vs. MPZ-GFP, unpaired t test
  Difference between means: -28.90 ± 5.936
HCT116 cells [2]; CHOP - 500 ng vs. empty, unpaired t test
  Difference between means: 5.458 ± 2.878
HCT116 cells [2]; CHOP - 500 ng
  Mean ± SEM (Fig 1S2D): 9.006 ± 2.589, n=3
